# ± gives the half width of the 95% confidence interval.
# Assay: folding stability dG unfold from trypsin proteolysis; higher = more stable
# Summary of the method: (§1)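 Only designs with AlphaFold2 dimer inter-PAE above 15 were retained; each was a mini-protein under 80 residues with no cysteine, in a PA-tagged cDNA display construct. After digestion with trypsin and chymotrypsin and sequencing, K50 was inferred by Bayesian fitting of counts, and unfolding free energy was derived per protease or combined against a sequence-predicted unfolded-state K50 and a shared folded-state K50.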
row,Sequence,folding stability dG unfold [kcal/mol]
1,SMKPGQTVTFNVMIRMKDPNMTAQEFAEEAADEIAENFPPGVKIEIKVDDIEPDPPNGEVYFMVKITITVSA [r9_706_TrROS],2.54 ± 0.17
2,SAMVTARVSDSVLRAYRLPDGYVRLVVFDPKTGEPVVEFVVPEDLITDIVEVGDKAVIHVDVKEEDLKLSAG [r14_755_TrMRF],1.28 ± 0.043
3,SAGGSAGGSAPWRIRIRDPNGKKVEIPWEEVADKFGIPPEEMTLDDILEAFANNIDRIEIVDSAGGSAGGSA [r18_403_TrROS],0.91 ± 0.067
4,SAGGSAGGMTPEELAEQKAEELREKLLAEGRPVSLKITKVTYEVDPKTGTVKVTSDIEIVYGPGSAGGSAGG [r6_454_JUSTAS],1.04 ± 0.08
5,SAGGSMPLDVSSELLEESTDPSDPNRRTTLERRFSPDGTVTLVTRTFDPATGTTEVQETTLPPGLPSAGGSA [r2_73_JUSTAS],0.529 ± 0.06
6,SAGGSAGDPSLPQPQYIAFLLVTKPGGVEEPLEVEVKTEEEAEKIAQEVRDAGYEVELELRPAALLSAGGSA [r15_906_JUSTAS],1.72 ± 0.16
7,SAGGKYEYDPDNGYYRDEDGKMYYPMPPQIPPIEIPIPINLPNGQKLNIPVEFRTIEDALDALKKFFSAGGS [r8_440_TrROS],0.697 ± 0.033
8,SAGEERTVRVEIEIVVKTEEELEALKALFPNAEATRNEDGLLTLRLTIEVRVAPPVVVRDPETNELLELSAG [r5_129_TrROS_Hall],2.56 ± 0.088
9,SAGGMEVVFVVGSPEVAEAFREKHPDLPFVPVSLEDYRNPAPFEAAVAAVEARGHAVRVITVPDDPESAGGS [r8_376_JUSTAS],0.0526 ± 0.14
10,SNELAKEIADELKKQGYEVKDVEVQYSPDDGMVEIEARIRHPDDGRQYRIDIHVNPDDGKITQVKIEPRPSA [r9_814_TrROS],0.857 ± 0.028
11,SAGGSAGGSAPVAYTITITYRDPDGSTRTLTLTFPNLTPEEAKEAAEALPIPASVVSIDITKASAGGSAGGS [r12_886_JUSTAS],2.24 ± 0.059
12,SAGGMTPSVLSNLSEEERKEAVRDFIIEFIKKAFPNVPEDFSVEEVPVLVYDLKTGKLFEVTVHLEGKSAGG [r13_555_TrMRF],1.19 ± 0.083
13,SAGMMEIVEVKEVDGRLELKIKDKETGEEFTITVERKEDGELKVTIEMSDEAAERLRELFPEIDRLEIKSAG [r5_933_TrROS_Hall],2.19 ± 0.069
14,SAGGSAGGSAGGRFEVLGVEPLPGNWVRVRVRYPGLGREATFLVRVSSLPLPPVDLDRFDSAGGSAGGSAGG [r11_986_TrMRF],1.82 ± 0.037
15,SAGATPTTLSFTDPEGKKIANVTVTVLPGGRQEASITNSDSNESYTAEYDPATGTWTLTFPDGTTLTVGSAG [r5_809_JUSTAS],1.15 ± 0.039
16,SAGSPLYEVKSEEVLPGPGGEPMRVTVVELPGGEILTFVESPDGLLEIRYIPAETGKFEKTEKVPRDLLSAG [r5_750_JUSTAS],0.445 ± 0.06
17,SAGGMKYLVTITITDPDTGQERVIEVEFPDMTPEEIKEAAEELAEEIASEQGLNLKVEVEVTPIPLLSAGGS [r8_185_JUSTAS],3.95 ± 0.11
18,SAGGSAGGSAGMRTITIPIPDGDPENIEEQARELADAFPDLKGKKVNIEYHKDGWITITVSAGGSAGGSAGG [r17_324_TrROS],0.694 ± 0.15
19,SAGGSAEIELPEGAKVEVTEVEVDGELYLRMKVVDEETGEVFVMEMRMRPDGEMEMEVKKIPKEELSAGGSA [r15_986_TrROS_Hall],1.3 ± 0.19
20,SAGGSAGGKIEEIAKKLNLEVESIEYDKETKKVTVTIKVNGKLYKIEIYVENGKIVKIKIEELPSAGGSAGG [r6_373_TrROS_Hall],3.3 ± 0.2
21,SAGGSAGGPNMYMFKLEIKWYDPGKGKPVATRPITVMVPEDDLPEILKNLPPGFEIKNITIFPMSAGGSAGG [r6_777_TrROS],2.16 ± 0.058

row,Sequence,folding stability dG unfold [kcal/mol]
1,SAGGEKATVTVVYDPEKGYVVVPVDIPFLDENGKPKKLKLVFVLPASPEAEEAVKELAKELGLESVESAGGS [r8_381_TrMRF],1.37 ± 0.1
2,SAGEVELTEDGSLKITETIEVNGLLFKVTVTIDENGNISVSIEKVEVLPPPPPVEIKLEDEEAKKKALKSAG [r5_715_TrROS_Hall],0.26 ± 0.28
3,SMNIHIPILTRPDVDEETIEEEVEALAAELAEKLGLPEGVEVEIEPEPLPEDGVVYHVTLRVGDVEFKGESA [r9_776_TrMRF],0.168 ± 0.14
4,SAGGSKFEVEKLPDNTYRFKVPNENGETLEITVEKLPDGAILVTHPSNPKPVLFPASTTIEDLLKKSAGGSA [r2_338_TrMRF],1.29 ± 0.029
5,SAGGSAKVVEIELVEVRRNANGERIVRVRIKLPNGEERTIEMSEEELKELLAKLPPNVEIVAIEEVSAGGSA [r15_339_TrROS_Hall],1.42 ± 0.077
6,SAGGSAGGSAGDWIKFEYTFKWNFFDPDGDLLMNMTVRVTIEIPIPPVPKPVKPSPNDDNSAGGSAGGSAGG [r17_325_TrROS],3.52 ± 0.13
7,SAGGSAGGSAGGGMTVEESVFLDPSGTRITVTTRVFDDGTVVTETEVTPLPPTPNPALASAGGSAGGSAGGS [r10_878_JUSTAS],1.2 ± 0.035
8,SAGGSAGGSAEVPKPGEAKPVLVTSSFTIPLPNGGTLEITTVDLVDVATGTVTPRVEVRSLDSAGGSAGGSA [r18_123_TrMRF],-0.786 ± 0.33
9,SAGGSQLDEYRKKVEEAIEKAKAEGKPVEKIELTGSEEVAKEVREWLEEQGIPKSVKVTVTPPAINESAGGS [r16_164_JUSTAS],0.433 ± 0.04
10,SAGGSMIVKVTVRVDGKEYERTVEVESLEEALELELPELPEGAEVRIEVVDPETGELIETVTLRVPSAGGSA [r2_390_TrROS_Hall],2.3 ± 0.13
11,SPIRIRIWNPKNNVPIDEIDIQPNEDGNYGIKIKFWMPGKQHEHTIPIPPGETADEFINDHGIRSIEIEPSA [r9_492_TrROS],0.13 ± 0.085
12,SAGGSAGGSAGLPEEIADFVKEILEKAFPNVKVLEVEVEELPEGFYVVRARFEDGSEVEFPISAGGSAGGSA [r18_423_TrMRF],4.29 ± 0.091
13,SAGWISPKQLRHALRNGKPIKIYMPNPQNKEHAKNWLRQETGLPKEEQKELLKDVKIEPMPPNDPNFKKSAG [r5_368_TrROS],0.128 ± 0.33
14,SAGGSAGGSAGMKLTITVTFPDGTTPTFEVPPNSGDPAEVAAAIRAAHPDVVTITITPELSAGGSAGGSAGG [r11_311_JUSTAS],0.683 ± 0.039
15,SAGGMTLEDLAGQSIEEALDLIEENGWDEVTITYPGGSKIEIKYNKDGPIEVEWENPDGNKQTFTIPSAGGS [r8_51_TrROS],0.644 ± 0.074
16,SAGGMTPEEKEEIAKKFAEELLKKLKEGDPNVKVETEVDPEKGVVKIKVINLNTKKPKTIEIPFSELASAGG [r13_354_TrMRF],1.76 ± 0.052
17,SAGGMPGVRPVVTVTVLVKFPGPDETKTVTITMRPEELAAGVTPEAAARRVAEALGHDIEILEIERKSAGGS [r16_554_JUSTAS],1.4 ± 0.04
18,SMLLIKITVKNPDGEEKEIVLSAEELRKLFEEETGEEYSLEEIAERLKKLFPNAKVEIVPLEELSEEELKSA [r9_1085_TrROS_Hall],2.77 ± 0.073
19,SAGGSAGGSAGGKIKLTVEKTEDGYLRVTAEDEDTKETVVITLPKGTTLEEALKLLKELSAGGSAGGSAGGS [r10_825_TrROS_Hall],3.14 ± 0.11
20,SAGMVIVDPKTKKKITFDKESGEIYIEVDGKKKKIKLKPGEKVEIEIIEKDGKLIIKIKANGKIIEIEPSAG [r5_858_TrROS_Hall],1.56 ± 0.17
21,SAGSKTISISVPGNWNIEELKAFLSTLPDNVTVYIFYPNKVYVGTVDKKNINLSADSSYDGFKVLVVVPSAG [r5_373_TrMRF],2 ± 0.06

# Assay: folding stability dG unfold from chymotrypsin proteolysis; higher = more stable
# Summary of the method: as §1
row,Sequence,folding stability dG unfold [kcal/mol]
1,SMKPGQTVTFNVMIRMKDPNMTAQEFAEEAADEIAENFPPGVKIEIKVDDIEPDPPNGEVYFMVKITITVSA [r9_706_TrROS],4 ± 0.13
2,SAMVTARVSDSVLRAYRLPDGYVRLVVFDPKTGEPVVEFVVPEDLITDIVEVGDKAVIHVDVKEEDLKLSAG [r14_755_TrMRF],1.98 ± 0.064
3,SAGGSAGGSAPWRIRIRDPNGKKVEIPWEEVADKFGIPPEEMTLDDILEAFANNIDRIEIVDSAGGSAGGSA [r18_403_TrROS],0.361 ± 0.12
4,SAGGSAGGMTPEELAEQKAEELREKLLAEGRPVSLKITKVTYEVDPKTGTVKVTSDIEIVYGPGSAGGSAGG [r6_454_JUSTAS],0.434 ± 0.29
5,SAGGSMPLDVSSELLEESTDPSDPNRRTTLERRFSPDGTVTLVTRTFDPATGTTEVQETTLPPGLPSAGGSA [r2_73_JUSTAS],1.49 ± 0.14
6,SAGGSAGDPSLPQPQYIAFLLVTKPGGVEEPLEVEVKTEEEAEKIAQEVRDAGYEVELELRPAALLSAGGSA [r15_906_JUSTAS],0.945 ± 0.28
7,SAGGKYEYDPDNGYYRDEDGKMYYPMPPQIPPIEIPIPINLPNGQKLNIPVEFRTIEDALDALKKFFSAGGS [r8_440_TrROS],1.13 ± 0.091
8,SAGEERTVRVEIEIVVKTEEELEALKALFPNAEATRNEDGLLTLRLTIEVRVAPPVVVRDPETNELLELSAG [r5_129_TrROS_Hall],2.42 ± 0.049
9,SAGGMEVVFVVGSPEVAEAFREKHPDLPFVPVSLEDYRNPAPFEAAVAAVEARGHAVRVITVPDDPESAGGS [r8_376_JUSTAS],1.12 ± 0.05
10,SNELAKEIADELKKQGYEVKDVEVQYSPDDGMVEIEARIRHPDDGRQYRIDIHVNPDDGKITQVKIEPRPSA [r9_814_TrROS],0.644 ± 0.17
11,SAGGSAGGSAPVAYTITITYRDPDGSTRTLTLTFPNLTPEEAKEAAEALPIPASVVSIDITKASAGGSAGGS [r12_886_JUSTAS],3.745 ± 0.035
12,SAGGMTPSVLSNLSEEERKEAVRDFIIEFIKKAFPNVPEDFSVEEVPVLVYDLKTGKLFEVTVHLEGKSAGG [r13_555_TrMRF],2.16 ± 0.1
13,SAGMMEIVEVKEVDGRLELKIKDKETGEEFTITVERKEDGELKVTIEMSDEAAERLRELFPEIDRLEIKSAG [r5_933_TrROS_Hall],3.37 ± 0.19
14,SAGGSAGGSAGGRFEVLGVEPLPGNWVRVRVRYPGLGREATFLVRVSSLPLPPVDLDRFDSAGGSAGGSAGG [r11_986_TrMRF],3.11 ± 0.046
15,SAGATPTTLSFTDPEGKKIANVTVTVLPGGRQEASITNSDSNESYTAEYDPATGTWTLTFPDGTTLTVGSAG [r5_809_JUSTAS],1.75 ± 0.032
16,SAGSPLYEVKSEEVLPGPGGEPMRVTVVELPGGEILTFVESPDGLLEIRYIPAETGKFEKTEKVPRDLLSAG [r5_750_JUSTAS],0.802 ± 0.087
17,SAGGMKYLVTITITDPDTGQERVIEVEFPDMTPEEIKEAAEELAEEIASEQGLNLKVEVEVTPIPLLSAGGS [r8_185_JUSTAS],3.34 ± 0.077
18,SAGGSAGGSAGMRTITIPIPDGDPENIEEQARELADAFPDLKGKKVNIEYHKDGWITITVSAGGSAGGSAGG [r17_324_TrROS],1.19 ± 0.1
19,SAGGSAEIELPEGAKVEVTEVEVDGELYLRMKVVDEETGEVFVMEMRMRPDGEMEMEVKKIPKEELSAGGSA [r15_986_TrROS_Hall],2.2 ± 0.34
20,SAGGSAGGKIEEIAKKLNLEVESIEYDKETKKVTVTIKVNGKLYKIEIYVENGKIVKIKIEELPSAGGSAGG [r6_373_TrROS_Hall],4.3 ± 0.25
21,SAGGSAGGPNMYMFKLEIKWYDPGKGKPVATRPITVMVPEDDLPEILKNLPPGFEIKNITIFPMSAGGSAGG [r6_777_TrROS],2.5 ± 0.071

# Reference: the supplement of paper PMC12764529
